According to the supplement of paper PMC10567573:

B1: RIPK4 (parent)
chain: VIDLFDEQGLSALHLAAQGRHAQT

Variants of: B1
Assay: protein stability index of a GFP-peptide fusion (GPS, HEK-293T) (PSI 1-6); higher = more stable
Conditions: c terminus: a fixed tail appended
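Further: lentivirally expressed fusions sorted by FACS into six bins by GFP to DsRed ratio, PSI derived from sequencing read proportions per bin multiplied by bin number.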

In order of falling protein stability index:
1. VIDLFDEQGESALHLAAQGRHAQT [L10E]  4.48
2. VIDLFDEQGLSAEHLAAQGRHAQT [L13E]  4.17
3. VIDLFDEQGLSADHLAAQGRHAQT [L13D]  4.04
4. VIDLFDEQGLSAPHLAAQGRHAQT [L13P]  4.04
5. VIDLFDEQGDSALHLAAQGRHAQT [L10D]  3.93
6. VIDLFDEQGLSAGHLAAQGRHAQT [L13G]  3.87
7. VIDLFDEQGLSALHLADQGRHAQT [A17D]  3.84
8. VIDLFDEQGNSALHLAAQGRHAQT [L10N]  3.83
9. VIDLFDEQGLSAQHLAAQGRHAQT [L13Q]  3.8
10. VIDLFDEQGSSALHLAAQGRHAQT [L10S]  3.76
11. VIDLFDEQGLSAMHLAAQGRHAQT [L13M]  3.66
12. VIDLFDEQGPSALHLAAQGRHAQT [L10P]  3.63
13. VIDLFDEQGLSAKHLAAQGRHAQT [L13K]  3.61
14. VIDLFDEQGGSALHLAAQGRHAQT [L10G]  3.6
15. VIDLFDEQGLSASHLAAQGRHAQT [L13S]  3.58
16. VIDLFDEQGLSATHLAAQGRHAQT [L13T]  3.56
17. VIDLFDEQGLSALHLDAQGRHAQT [A16D]  3.55
18. VIDLFDEQGLSALHLAEQGRHAQT [A17E]  3.54
19. VIDLFDEQGLSAHHLAAQGRHAQT [L13H]  3.48
20. VIDLFDEQGLSALHLNAQGRHAQT [A16N]  3.46
21. VIDLFDEQGLSALHLPAQGRHAQT [A16P]  3.42
22. VIDLFDEQGLSAAHLAAQGRHAQT [L13A]  3.38
23. VIDLFDEQGASALHLAAQGRHAQT [L10A]  3.33
24. VIDLFDEQGLSARHLAAQGRHAQT [L13R]  3.31
25. VIDLFDEQGKSALHLAAQGRHAQT [L10K]  3.31
26. VIDLFDEQGLSANHLAAQGRHAQT [L13N]  3.3
27. VIDLFDEQGLSALHLGAQGRHAQT [A16G]  3.27
28. VIDLFDEQGQSALHLAAQGRHAQT [L10Q]  3.25
29. VIDLFDEQGRSALHLAAQGRHAQT [L10R]  3.23
30. VIDLFDEQGLSALHLEAQGRHAQT [A16E]  3.2
31. VIDLFDEQGCSALHLAAQGRHAQT [L10C]  3.2
32. VIDLFDEQGHSALHLAAQGRHAQT [L10H]  3.19
33. VIDLFDEQGLSALHLARQGRHAQT [A17R]  3.17
34. VIDLFDEQGLSALHLSAQGRHAQT [A16S]  3.15
35. VIDLFDEQGLSALHLANQGRHAQT [A17N]  3.13
36. VIDLFDEQGLEALHLAAQGRHAQT [S11E]  3.11
37. VIDLFDEQGLSALHLTAQGRHAQT [A16T]  3.11
38. VIDLFDEQGTSALHLAAQGRHAQT [L10T]  3.08
39. VIDLFDEQGLSAVHLAAQGRHAQT [L13V]  3.06
40. VIDLFDEQGLDALHLAAQGRHAQT [S11D]  3.04
41. VIDLFDEQGMSALHLAAQGRHAQT [L10M]  3.04
42. VIDLFDEQGLSALHLKAQGRHAQT [A16K]  2.98
43. VIDLFDEQGLSALHLAQQGRHAQT [A17Q]  2.98
44. VIDLFDEQGVSALHLAAQGRHAQT [L10V]  2.97
45. VIDLFDEQGLQALHLAAQGRHAQT [S11Q]  2.95
46. VIDLFDEQGLSALHLAVQGRHAQT [A17V]  2.92
47. VIDLFDEQGLSAFHLAAQGRHAQT [L13F]  2.87
48. VIDLFDEQGLSALHLHAQGRHAQT [A16H]  2.83
49. VIDLFDEQGFSALHLAAQGRHAQT [L10F]  2.83
50. VIDLFDEQGLSALHLASQGRHAQT [A17S]  2.83
51. VIDLFDEQGLSAWHLAAQGRHAQT [L13W]  2.82
52. VIDLFDEQGLSALHLAPQGRHAQT [A17P]  2.82
53. VIDLFDEQGLSALHLAKQGRHAQT [A17K]  2.8
54. VIDLFDEQGLSALHLQAQGRHAQT [A16Q]  2.77
55. VIDLFDEQGLSAIHLAAQGRHAQT [L13I]  2.75
56. VIDLFDEQGYSALHLAAQGRHAQT [L10Y]  2.75
57. VIDLFDEQGLSALHLAHQGRHAQT [A17H]  2.72
58. VIDLFDEQGLSALHLAGQGRHAQT [A17G]  2.72
59. VIDLFDEQGLSALHLATQGRHAQT [A17T]  2.7
60. VIDLFDEQGLSALHLAIQGRHAQT [A17I]  2.69
61. VIDLFDEQSLSALHLAAQGRHAQT [G9S]  2.68
62. VIDLFDEQGISALHLAAQGRHAQT [L10I]  2.67
63. VIDLFDEQGLKALHLAAQGRHAQT [S11K]  2.65
64. VIDLFDEQGLCALHLAAQGRHAQT [S11C]  2.63
65. VIDLFDEQGLSALHLCAQGRHAQT [A16C]  2.59
66. VIDLFDEQGLSALHLACQGRHAQT [A17C]  2.54
67. VIDLFDEQGLSAYHLAAQGRHAQT [L13Y]  2.53
68. VIDLFDEQGLWALHLAAQGRHAQT [S11W]  2.52
69. VIDLFDEQGLHALHLAAQGRHAQT [S11H]  2.51
70. VIDLFDEQGLSALHLAYQGRHAQT [A17Y]  2.49
71. VIDLFDEQGLSALHLAFQGRHAQT [A17F]  2.47
72. VIDLFDEQGLFALHLAAQGRHAQT [S11F]  2.43
73. VIDLFDEQGLSALHLRAQGRHAQT [A16R]  2.42
74. VIDLFDEQGLSALHLMAQGRHAQT [A16M]  2.4
75. VIDLFDEQRLSALHLAAQGRHAQT [G9R]  2.4
76. VIDLFDEQGLLALHLAAQGRHAQT [S11L]  2.36
77. VIDLFDEQGLSALHLIAQGRHAQT [A16I]  2.35
78. VIDLFDEQGLYALHLAAQGRHAQT [S11Y]  2.31
79. VIDLFDEQTLSALHLAAQGRHAQT [G9T]  2.25
80. VIDLFDEQGWSALHLAAQGRHAQT [L10W]  2.23
81. VIDLFDEQGLSACHLAAQGRHAQT [L13C]  2.22
82. VIDLFDEQGLMALHLAAQGRHAQT [S11M]  2.18
83. VIDLFDEQGLSALHLYAQGRHAQT [A16Y]  2.08
84. VIDLFDEQGLRALHLAAQGRHAQT [S11R]  2.03
85. VIDLFDEQGLSALHLVAQGRHAQT [A16V]  2.01
86. VIDLFDEQGLSALHLFAQGRHAQT [A16F]  1.99
87. VIDLFDEQGLSALHLAMQGRHAQT [A17M]  1.99
88. VIDLFDEQGLSALHLALQGRHAQT [A17L]  1.98
89. VIDLFDEQGLSALHLLAQGRHAQT [A16L]  1.85
90. VIDLFDEQGLSALHLAWQGRHAQT [A17W]  1.75
91. VIDLFDEQWLSALHLAAQGRHAQT [G9W]  1.69
92. VIDLFDEQVLSALHLAAQGRHAQT [G9V]  1.66
93. VIDLFDEQYLSALHLAAQGRHAQT [G9Y]  1.6
94. VIDLFDEQGLSALHLWAQGRHAQT [A16W]  1.51
